# T1: PseniHMFO^His (Pseudomonas nitroreducens, UniProt A0A6G6IPZ6)
# T1 construct: gene G5B91_01695
# T1 sequence (A0A6G6IPZ6 1-531): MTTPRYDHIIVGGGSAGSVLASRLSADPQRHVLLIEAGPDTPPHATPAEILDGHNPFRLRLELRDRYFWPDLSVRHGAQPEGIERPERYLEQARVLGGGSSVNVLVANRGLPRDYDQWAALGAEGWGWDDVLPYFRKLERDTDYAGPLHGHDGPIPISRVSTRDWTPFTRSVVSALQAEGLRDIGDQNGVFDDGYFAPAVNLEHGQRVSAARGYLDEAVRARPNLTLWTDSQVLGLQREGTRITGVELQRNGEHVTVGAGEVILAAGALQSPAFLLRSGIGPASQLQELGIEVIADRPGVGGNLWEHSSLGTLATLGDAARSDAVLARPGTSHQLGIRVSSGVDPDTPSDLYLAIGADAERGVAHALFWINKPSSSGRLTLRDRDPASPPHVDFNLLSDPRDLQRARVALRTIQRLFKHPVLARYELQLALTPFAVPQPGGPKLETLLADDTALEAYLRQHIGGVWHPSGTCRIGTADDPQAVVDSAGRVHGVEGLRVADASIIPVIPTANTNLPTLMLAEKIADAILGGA
# T2: MetspHMFO (Methylovorus sp. MP688, UniProt E4QP00)
# T2 construct: gene MPQ_0130
# T2 sequence (E4QP00 1-531): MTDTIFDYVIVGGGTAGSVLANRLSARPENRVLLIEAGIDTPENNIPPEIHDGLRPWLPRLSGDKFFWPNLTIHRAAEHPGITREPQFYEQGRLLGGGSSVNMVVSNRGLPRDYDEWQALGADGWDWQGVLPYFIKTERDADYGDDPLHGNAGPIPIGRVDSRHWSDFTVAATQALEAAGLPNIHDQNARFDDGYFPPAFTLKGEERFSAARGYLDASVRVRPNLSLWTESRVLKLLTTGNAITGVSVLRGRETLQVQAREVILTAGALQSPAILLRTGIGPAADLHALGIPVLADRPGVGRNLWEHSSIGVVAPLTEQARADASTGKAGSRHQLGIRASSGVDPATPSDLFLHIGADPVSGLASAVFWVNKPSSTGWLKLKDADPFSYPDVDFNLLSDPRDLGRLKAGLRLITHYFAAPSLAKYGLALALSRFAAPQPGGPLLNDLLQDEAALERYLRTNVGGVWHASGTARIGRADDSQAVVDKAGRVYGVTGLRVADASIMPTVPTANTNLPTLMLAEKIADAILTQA
# T3: MetspHMFO^His (Methylovorus sp. MP688, UniProt E4QP00)
# T3 construct: gene MPQ_0130
# T3 sequence (E4QP00 1-531): T2 sequence (E4QP00 1-531)
# T4: PsespHMFO (Pseudomonas sp. 11/12A, UniProt Z9N8I9PR93)
# T4 sequence (Z9N8I9PR93 1-530): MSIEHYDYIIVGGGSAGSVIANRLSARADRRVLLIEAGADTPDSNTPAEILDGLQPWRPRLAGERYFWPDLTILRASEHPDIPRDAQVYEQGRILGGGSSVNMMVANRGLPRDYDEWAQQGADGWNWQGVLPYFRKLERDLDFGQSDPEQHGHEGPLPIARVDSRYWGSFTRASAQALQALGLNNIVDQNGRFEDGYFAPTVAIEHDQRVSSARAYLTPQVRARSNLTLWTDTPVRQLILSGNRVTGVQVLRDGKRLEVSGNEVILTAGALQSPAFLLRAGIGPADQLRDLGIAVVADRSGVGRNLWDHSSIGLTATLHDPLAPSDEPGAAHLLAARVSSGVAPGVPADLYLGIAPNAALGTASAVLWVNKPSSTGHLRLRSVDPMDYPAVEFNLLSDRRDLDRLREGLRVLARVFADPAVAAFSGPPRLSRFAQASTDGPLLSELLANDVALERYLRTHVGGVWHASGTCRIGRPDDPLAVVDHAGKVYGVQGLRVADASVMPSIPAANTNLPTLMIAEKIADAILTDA
# B1: MetspHMFO (Methylovorus sp. MP688) (protein)
# chain: T2 sequence (E4QP00 1-531)
# B2: MetspHMFO^His (Methylovorus sp. MP688) (protein)
# chain: T2 sequence (E4QP00 1-531)
# B3: PseniHMFO^His (Pseudomonas nitroreducens) (protein)
# chain: T1 sequence (A0A6G6IPZ6 1-531)
# How the values were obtained:
# [1] = target: T1, PseniHMFO^His; experiment: UV-visible flavin spectrum; FAD release on heat denaturation; type: binding; conditions: 50 mM Tris-HCl, pH 7.0, 25°C; co-purified prosthetic group
# [2] = target: T2, MetspHMFO; experiment: as above; type: binding; conditions: 50 mM Tris-HCl, pH 7.0, 25°C; co-purified prosthetic group
# [3] = target: T3, MetspHMFO^His; experiment: as above; type: binding; conditions: 50 mM Tris-HCl, pH 7.0, 25°C; co-purified prosthetic group
# [4] = target: T4, PsespHMFO; experiment: as above; type: binding; conditions: 50 mM Tris-HCl, pH 7.0, 25°C; co-purified prosthetic group
# [5] = substrate: O=Cc1ccc(CO)o1; experiment: purified protein; conditions: 50 mM Tris-HCl, pH 7.0, 25°C, O2
# [6] = substrate: O=Cc1ccc(C=O)o1; experiment: HRP/AmplexRed-coupled H2O2 assay; type: biochemical, Methylovorus sp. MP688; conditions: 50 mM Tris-HCl, pH 7.0, 25°C, O2
# Text: HRP/AmplexRed-coupled H2O2 assay on MetspHMFO
# [7] = substrate: COc1cc(CO)ccc1O; experiment: steady-state, direct spectrophotometry of vanillin; type: biochemical, Methylovorus sp. MP688; conditions: 50 mM Tris-HCl, pH 7.0, 25°C, O2
# Text: steady-state, direct spectrophotometry of vanillin on MetspHMFO
# [8] = substrate: O=Cc1ccc(C=O)o1; experiment: HRP/AmplexRed-coupled H2O2 assay; type: biochemical, Methylovorus sp. MP688; conditions: 50 mM Tris-HCl, pH 7.0, 25°C, O2; remark: listed apart in the source
# Text: HRP/AmplexRed-coupled H2O2 assay on MetspHMFO^His
# [9] = substrate: COc1cc(CO)ccc1O; experiment: steady-state, direct spectrophotometry of vanillin; type: biochemical, Methylovorus sp. MP688; conditions: 50 mM Tris-HCl, pH 7.0, 25°C, O2; remark: listed apart in the source
# Text: steady-state, direct spectrophotometry of vanillin on MetspHMFO^His
# [10] = substrate: COc1cc(CO)ccc1O; experiment: steady-state, direct spectrophotometry of vanillin; type: biochemical, Pseudomonas nitroreducens; conditions: 50 mM Tris-HCl, pH 10, 25°C, O2
# Text: steady-state, direct spectrophotometry of vanillin on PseniHMFO^His
# [11] = substrate: O=Cc1ccc(C=O)o1; experiment: HRP/AmplexRed-coupled H2O2 assay; type: biochemical, Pseudomonas nitroreducens; conditions: 50 mM Tris-HCl, pH 7.0, 25°C, O2
# Text: (§1) HRP/AmplexRed-coupled H2O2 assay on PseniHMFO^His
# [12] = substrate: O=Cc1ccc(CO)o1; experiment: HRP/AmplexRed-coupled H2O2 assay; type: biochemical, Pseudomonas nitroreducens; conditions: 50 mM Tris-HCl, pH 7.0, 25°C, O2
# Text: as §1
molecule,measurement,setting,value
Cc1cc2nc3c(=O)[nH]c(=O)nc-3n(C[C@H](O)[C@H](O)[C@H](O)COP(=O)(O)OP(=O)(O)OC[C@H]3O[C@@H](n4cnc5c(N)ncnc54)[C@H](O)[C@@H]3O)c2cc1C [FAD],UV-visible flavin spectrum; FAD release on heat denaturation,[1],The enzymes showed UV-visible spectra characteristic of FAD-containing proteins
same,UV-visible flavin spectrum; FAD release on heat denaturation,[2],The enzymes showed UV-visible spectra characteristic of FAD-containing proteins
same,UV-visible flavin spectrum; FAD release on heat denaturation,[3],The enzymes showed UV-visible spectra characteristic of FAD-containing proteins
same,UV-visible flavin spectrum; FAD release on heat denaturation,[4],The enzymes showed UV-visible spectra characteristic of FAD-containing proteins
B1,Km,[5],9.1 ± 0.7 mM
same,kcat,[5],1.38 ± 0.0267 s⁻¹
same,Km,[6],6.8 ± 0.6 mM
same,kcat,[6],0.102 ± 0.0033 s⁻¹
same,Km,[7],0.5 ± 0.1 mM
same,kcat,[7],19.5 ± 1.33 s⁻¹
B2,Km,[5],6.8 ± 0.8 mM
same,kcat,[5],1.61 ± 0.0633 s⁻¹
same,Km,[8],4.8 ± 1.9 mM
same,kcat,[8],0.0417 ± 0.005 s⁻¹
same,Km,[9],0.6 ± 0.03 mM
same,kcat,[9],19.83 ± 0.833 s⁻¹
B3,Km,[10],0.8 ± 0.2 mM
same,Km,[11],4.8 ± 1.9 mM
same,kcat,[11],0.0167 ± 0.0017 s⁻¹
same,Km,[12],5.1 ± 1.1 mM
same,kcat,[12],0.238 ± 0.015 s⁻¹
